B1: Pistol ribozyme (parent)
chain: GGGUCGUUGUUCCAUAAUCGCGUGGAUAUGGCACGCAAGUUUCUACCGGGCACCGUAAAUGUCCGACUGGAGCCGUUCGGGCGGCUAUAAACAGACCUCAGGCCCGAAGCGUGGCGGCACCUGCCGCCGGUGGUAAAAAAGAUCGGAAGAGCACACGUCU

Variants of: B1
Assay: aptazyme ON/OFF ratio, guanine; higher = stronger switching; co-transcriptional cleavage with and without guanine

Point of comparison: GGGUCGGCGGGCCAUAAUCGCGUGGAUAUGGCACGCAAGUUUCUACCGGGCACCGUAAAUGUCCGACUGGAGCCGUUCGGGCGGCUAUAAACAGACCUCAGGCCCGAAGCGUGGCGGCACCUGCCGCCGGUGGUAAAAAAGAUCGGAAGAGCACACGUCU, “aptazyme ON/OFF ratio” value 1.31. Against it:
- GGGUCGUGGGCCUAUAAUCGCGUGGAUAUGGCACGCAAGUUUCUACCGGGCACCGUAAAUGUCCGACUGGAGCCGUUCGGGCGGCUAUAAACAGACCUCAGGCCCGAAGCGUGGCGGCACCUGCCGCCGGUGGUAAAAAAGAUCGGAAGAGCACACGUCU — lower, 1.04
- GGGUCGAAUGACUAUAAUCGCGUGGAUAUGGCACGCAAGUUUCUACCGGGCACCGUAAAUGUCCGACUGGAGCCGUUCGGGCGGCUAUAAACAGACCUCAGGCCCGAAGCGUGGCGGCACCUGCCGCCGGUGGUAAAAAAGAUCGGAAGAGCACACGUCU — lower, 1.1
- GGGUCGCUGGUUAAUAAUCGCGUGGAUAUGGCACGCAAGUUUCUACCGGGCACCGUAAAUGUCCGACUGGAGCCGUUCGGGCGGCUAUAAACAGACCUCAGGCCCGAAGCGUGGCGGCACCUGCCGCCGGUGGUAAAAAAGAUCGGAAGAGCACACGUCU — lower, 1.25
- GGGUCGUGACACCAUAAUCGCGUGGAUAUGGCACGCAAGUUUCUACCGGGCACCGUAAAUGUCCGACUGGAGCCGUUCGGGCGGCUAUAAACAGACCUCAGGCCCGAAGCGUGGCGGCACCUGCCGCCGGUGGUAAAAAAGAUCGGAAGAGCACACGUCU — higher, 1.37
- GGGUCGAUAUUGAAUAAUCGCGUGGAUAUGGCACGCAAGUUUCUACCGGGCACCGUAAAUGUCCGACUGGAGCCGUUCGGGCGGCUAUAAACAGACCUCAGGCCCGAAGCGUGGCGGCACCUGCCGCCGGUGGUAAAAAAGAUCGGAAGAGCACACGUCU — lower, 1.12
- GGGUCGUUGGAGCAUAAUCGCGUGGAUAUGGCACGCAAGUUUCUACCGGGCACCGUAAAUGUCCGACUGGAGCCGUUCGGGCGGCUAUAAACAGACCUCAGGCCCGAAGCGUGGCGGCACCUGCCGCCGGUGGUAAAAAAGAUCGGAAGAGCACACGUCU — higher, 1.4
- GGGUCGGUGUUCCAUAAUCGCGUGGAUAUGGCACGCAAGUUUCUACCGGGCACCGUAAAUGUCCGACUGGAGCCGUUCGGGCGGCUAUAAACAGACCUCAGGCCCGAAGCGUGGCGGCACCUGCCGCCGGUGGUAAAAAAGAUCGGAAGAGCACACGUCU — higher, 1.89
- GGGUCGCUCGUUUAUAAUCGCGUGGAUAUGGCACGCAAGUUUCUACCGGGCACCGUAAAUGUCCGACUGGAGCCGUUCGGGCGGCUAUAAACAGACCUCAGGCCCGAAGCGUGGCGGCACCUGCCGCCGGUGGUAAAAAAGAUCGGAAGAGCACACGUCU — lower, 1.17
- GGGUCGAACGGCAAUAAUCGCGUGGAUAUGGCACGCAAGUUUCUACCGGGCACCGUAAAUGUCCGACUGGAGCCGUUCGGGCGGCUAUAAACAGACCUCAGGCCCGAAGCGUGGCGGCACCUGCCGCCGGUGGUAAAAAAGAUCGGAAGAGCACACGUCU — lower, 1.28
- GGGUCGACACUAAAUAAUCGCGUGGAUAUGGCACGCAAGUUUCUACCGGGCACCGUAAAUGUCCGACUGGAGCCGUUCGGGCGGCUAUAAACAGACCUCAGGCCCGAAGCGUGGCGGCACCUGCCGCCGGUGGUAAAAAAGAUCGGAAGAGCACACGUCU — lower, 1.2
- GGGUCGCACCCGGAUAAUCGCGUGGAUAUGGCACGCAAGUUUCUACCGGGCACCGUAAAUGUCCGACUGGAGCCGUUCGGGCGGCUAUAAACAGACCUCAGGCCCGAAGCGUGGCGGCACCUGCCGCCGGUGGUAAAAAAGAUCGGAAGAGCACACGUCU — lower, 1.04
- GGGUCGGCCCCUAAUAAUCGCGUGGAUAUGGCACGCAAGUUUCUACCGGGCACCGUAAAUGUCCGACUGGAGCCGUUCGGGCGGCUAUAAACAGACCUCAGGCCCGAAGCGUGGCGGCACCUGCCGCCGGUGGUAAAAAAGAUCGGAAGAGCACACGUCU — lower, 1.05
- GGGUCGGUUCCUUAUAAUCGCGUGGAUAUGGCACGCAAGUUUCUACCGGGCACCGUAAAUGUCCGACUGGAGCCGUUCGGGCGGCUAUAAACAGACCUCAGGCCCGAAGCGUGGCGGCACCUGCCGCCGGUGGUAAAAAAGAUCGGAAGAGCACACGUCU — lower, 1.29
- GGGUCGAGGCAUAAUAAUCGCGUGGAUAUGGCACGCAAGUUUCUACCGGGCACCGUAAAUGUCCGACUGGAGCCGUUCGGGCGGCUAUAAACAGACCUCAGGCCCGAAGCGUGGCGGCACCUGCCGCCGGUGGUAAAAAAGAUCGGAAGAGCACACGUCU — higher, 1.35
- GGGUCGCCCUCGCAUAAUCGCGUGGAUAUGGCACGCAAGUUUCUACCGGGCACCGUAAAUGUCCGACUGGAGCCGUUCGGGCGGCUAUAAACAGACCUCAGGCCCGAAGCGUGGCGGCACCUGCCGCCGGUGGUAAAAAAGAUCGGAAGAGCACACGUCU — lower, 1.24
- GGGUCGUCUAGUGAUAAUCGCGUGGAUAUGGCACGCAAGUUUCUACCGGGCACCGUAAAUGUCCGACUGGAGCCGUUCGGGCGGCUAUAAACAGACCUCAGGCCCGAAGCGUGGCGGCACCUGCCGCCGGUGGUAAAAAAGAUCGGAAGAGCACACGUCU — lower, 1.14
- GGGUCGCUGUCAGAUAAUCGCGUGGAUAUGGCACGCAAGUUUCUACCGGGCACCGUAAAUGUCCGACUGGAGCCGUUCGGGCGGCUAUAAACAGACCUCAGGCCCGAAGCGUGGCGGCACCUGCCGCCGGUGGUAAAAAAGAUCGGAAGAGCACACGUCU — lower, 1.28
